Test results reported in PMC9729208, “Structural basis for the non-self RNA-activated protease activity of the type III-E CRISPR nuclease-protease Craspase”.

Tests used:
gRAMP;TPR-CHAT = gRAMP;TPR-CHAT (Candidatus Scalindua brodae;Candidatus …, UniProt A0A0B0EGF3;A0A0B0EKL4 1-1717;1-716, |); test: cryo-EM (2.6 A); Complex assembly at 1:1.2 (complex:target RNA), 5 mM EDTA, on ice 30 min; SEC in 20 mM Tris-HCl pH 8.0, 150 mM NaCl, 1 mM DTT; details: protein: recombinant;recombinant; tags: N-terminal His6;C-terminal Strep II; copies: 1;1; single strand; 35 nt modelled in 7Y80 and 7Y84
gRAMP = gRAMP (Candidatus Scalindua brodae, UniProt A0A0B0EGF3 1-1717); test: cryo-EM; Complex assembly at 1:1.2 (complex:target RNA), 5 mM EDTA, on ice 30 min; SEC in 20 mM Tris-HCl pH 8.0, 150 mM NaCl, 1 mM DTT; details: protein: recombinant; tags: N-terminal His6; single strand; 35 nt modelled in 7Y80 and 7Y84

B1: crRNA (ssRNA)
RNA: GACUUAAUGUCACGGUACCCAAUUUUCUGCCCCGGACUCCACGGCUGUUACUAGAG
B1: binds (gRAMP;TPR-CHAT); binds (gRAMP).
